Residue numbers refer to the chain shown, from its start. Names may count otherwise.
How the values were obtained:
H3K36me2 peptide = test: Fluorescence coupled demethylation assay; format: biochemical; conditions: bacterially expressed fragment
Experimental: (§1) For assay of in vitro histone demethylation, cells from a confluent 15 cm dish were harvested and the cell pellet was resuspended in 5 packed cell volumes of Buffer A (10 mM HEPES pH 7.9, 1.5 mM MgCl2, 10 mM KCl, 0.5 mM DTT, and 0.2 mM PMSF) and centrifuged at 1500 rpm for 5 minutes. Buffer A was added up to a final of 3 original packed cell volumes and the suspension was incubated on ice for 10 minutes. Cells were transferred to a Wheaton A Dounce homogenizer and lysed with 10 strokes. Nuclei were pelleted by centrifuging at maximum speed for 5 min in a microcentrifuge. Nuclei were resuspended in Buffer B (20 mM HEPES, pH 7.9, 100 mM KCl, 0.5 mM DTT and 0.2 mM PMSF) and disrupted by sonication. After preclearing with 20 μl protein A-agarose beads, the supernatant was incubated with either myc- or hemagglutinin-specific monoclonal antibody (5 μg/sample) and 20 μl protein A-agarose beads overnight at 4° C., the sample was washed three times with 1 ml Buffer B and the purified immune complex was incubated overnight at 4° C. with myc or HA peptide to release Ndy1/KDM2B from the beads. Demethylation reactions were carried out in 10 mM HEPES pH 7.9, 50 mM NaCl, 1 mM α-ketoglutarate, 2 mM ascorbate, 30-70 μM Fe(NH4)2(SO4)2, 0.25 mg/ml BSA and contained 6 μg of bulk histone per 90 μl reaction. Reactions were incubated at 37° C. for 1-3 hours and analyzed by 18% SDS-PAGE and Western-blotting with histone specific antibodies.
(§2) Fluorescent assays were carried out as previously described (Couture, J. F., et al. (2007) Nat Struct Mol Biol 14, 689-95) under the reaction conditions above. One unit of enzyme activity is determined as amount of Ndy1 that produces 1 μmol of formaldehyde per min, incubated with 340 μM peptide substrate at 37° C. under the above conditions. The sequences of the H3K4(me3) and H3K36(me2) peptides used in the biochemical studies were: ART-K(me3)-QTARKST (SEQ ID NO: 79) and ATGGV-K(me2)-KPHRY (SEQ ID NO: 80) respectively and were synthesized at Tufts University Core facility.
(§3) Using a fluorescence coupled demethylation assay, a bacterially expressed mouse Ndy1 fragment containing the JmjC, CXXC and PHD domains (aa 171-707) was here shown to demethylate both H3K36me2 and H3K4me3 peptides, with high and low efficiencies respectively (FIG. 20 panel B and FIG. 22). Cloning and bacterial expression of Ndy1 fragments was accomplished using fragments 1-701 and 171-701 of mouse Ndy1, which were amplified using specific primers and were cloned directly into pET102/DTOPO vector (Invitrogen) using of the TOPO-cloning methodology. The C-terminally His-tagged fusion proteins were purified from BL21(DE3) cells using Ni2+agarose beads (QIAGEN) and according to the manufacturer instructions. Flow cytometry analysis of histone modifications was determined in HEK293 cells transfected with either pIRES-GFP-empty vector (Stratagene) or the same vector containing the wild type or the H283Y JmjC domain point mutant of Ndy1. After 48 hours, cells were harvested and fixed in 1% paraformaldehyde for 10 min. Cells were washed twice with PBS, and were permeabilized with 0.5% saponin in PBS for 20 min and were blocked with 3% bovine serum albumin (BSA). […] (Alexa Fluor 635, Invitrogen, #A31577) followed by fluorescence-activated cell sorting using a CyAn high performance flow cytometer (Dako Cytomation).

H3K4me3 peptide = test: Fluorescence coupled demethylation assay; format: biochemical; conditions: bacterially expressed fragment
Experimental: as §1, §2, §3

B1: Ndy1 fragment (aa 171-707): bacterially expressed mouse Ndy1 fragment containing the JmjC, CXXC and PHD domains (protein, UniProt Q6P1G2 171-707, looked up, fragment)
chain: MWPQHLKEKQTEATNALAEMKYPKVKKYCLMSVKGCFTDFHIDFGGTSVWYHVFRGGKIFWLIPPTLHNLALYEEWVLSGKQSDIFLGDRVERCQRIELKQGYTFFIPSGWIHAVYTPVDSLVFGGNILHSFNVPMQLRIYEIEDRTRVQPKFRYPFYYEMCWYVLERYVYCVTQRSYLTQEYQRELMLIDAPRKTSVDGFSSDSWLDMEEESCEQQPQEEEEEEEDKEEEGDGADKTPKPPTDDPTSPTSTPPEDQDSTGKKPKAPAIRFLKRTLSNESEESVKSTSMPTDDPKTPTGSPATEVSTKWTHLTEFELKGLKALVEKLESLPENKKCVPEGIEDPQALLEGVKNVLKEHVDDDPTLAITGVPVVSWPKKTAKNRVVGRPKGKLGPASAVKLAANRTTAGARRRRTRCRKCEACLRTECGECHFCKDMKKFGGPGRMKQSCIMRQCIAPVLPHTAVCLVCGEAGKEDTVEEEEGKFNLMLMECSICNEIIHPGCLKIKESEGVVNDELPNCWECPKCNHAGKTGKQKRG
- efficiency of demethylation of H3K36me2 peptide (H3K36me2 peptide): high
- efficiency of demethylation of H3K4me3 peptide (H3K4me3 peptide): low

B2: 171-707 Ndy1 fragment containing the Y221A mutation: Ndy1 fragment with Y221A mutation, which abolishes the demethylase activity (protein)
chain: B1 chain with Y51A
modifications: left off: small tags and cut ends
- efficiency of demethylation of H3K36me2 peptide (H3K36me2 peptide): failed to demethylate
- efficiency of demethylation of H3K4me3 peptide (H3K4me3 peptide): failed to demethylate

Reference: patent US20110008302A1, “Compositions and methods for immortalizing cells and screening for anti-cancer agents” (priority 2007, published 2011)
